{"source": "patent US8404239B2", "about": "“Anti-Notch2 NRR antibodies” (Genentech, Inc., priority 2008, dated 2013)", "molecules": {"B1": {"name": "anti-NRR2: affinity matured form of Antibody D, phage library-derived human anti-Notch2 NRR monoclonal antibody (antibody, V domains shown)", "VH": "EVQLVESGGGLVQPGGSLRLSCAASGYTFSSYGMSWVRQAPGKGLEWVSYIYPYSGATYYADSVKGRFTISADTSKNTAYLQMNSLRAEDTAVYYCARHSGYYRISSAMDVWGQGTLVTVSA", "VL": "DIQMTQSPSSLSASVGDRVTITCRASQNIKRFLAWYQQKPGKAPKLLIYGASTRESGVPSRFSGSGSGTDFTLTISSLQPEDFATYYCQQYYRSPHTFGQGTKVEIKR"}}, "key": {"Notch2 NRR": {"tested_on": "Notch2 NRR", "experiment": "ELISA binding to purified Notch2 NRR proteins", "details": "purified human or mouse protein, up to highest antibody concentration tested", "description": "(§1) The N-myc-Notch transgenes were expressed under control of the inducible tet promoter; bottom row, control expression in the absence of induction with doxycycline (−Dox); top row, induced expression following addition of doxycycline (+Dox); note that the K1-CHO line endogenously expresses Notch2, which is detected by anti-NRR2 in the presence and absence of doxycycline (for example, compare panels 7 and 10).\nAnti-Flag antibody was used to capture Flag-Tagged NRR protein from all four Notch receptors in a black walled, high binding plate (Greiner). NRR antibody and E25 control antibodies were bound to the NRR proteins and washed away with PBS. An Alkaline Phosphate conjugated anti-human (H+L) secondary antibody (Jackson ImmunoResearch) was used to detect bound anti-NRR and E25. Unbound secondary was washed away and AP was detected with PNPP substrate (Pierce)."}, "[1]": {"biological_target": "T1, myc-Notch2 on K1-CHO cells (Homo sapiens, UniProt Q04721)", "T1 construct": "either the Notch1 or Notch2 extracellular domain and trans-membrane domains were N-terminally myc-tagged; expressed in transfected cells; host or cells: CHO-K1 (Tet-inducible, doxycycline)", "T1 sequence (Q04721 26-1677 limits assumed)": "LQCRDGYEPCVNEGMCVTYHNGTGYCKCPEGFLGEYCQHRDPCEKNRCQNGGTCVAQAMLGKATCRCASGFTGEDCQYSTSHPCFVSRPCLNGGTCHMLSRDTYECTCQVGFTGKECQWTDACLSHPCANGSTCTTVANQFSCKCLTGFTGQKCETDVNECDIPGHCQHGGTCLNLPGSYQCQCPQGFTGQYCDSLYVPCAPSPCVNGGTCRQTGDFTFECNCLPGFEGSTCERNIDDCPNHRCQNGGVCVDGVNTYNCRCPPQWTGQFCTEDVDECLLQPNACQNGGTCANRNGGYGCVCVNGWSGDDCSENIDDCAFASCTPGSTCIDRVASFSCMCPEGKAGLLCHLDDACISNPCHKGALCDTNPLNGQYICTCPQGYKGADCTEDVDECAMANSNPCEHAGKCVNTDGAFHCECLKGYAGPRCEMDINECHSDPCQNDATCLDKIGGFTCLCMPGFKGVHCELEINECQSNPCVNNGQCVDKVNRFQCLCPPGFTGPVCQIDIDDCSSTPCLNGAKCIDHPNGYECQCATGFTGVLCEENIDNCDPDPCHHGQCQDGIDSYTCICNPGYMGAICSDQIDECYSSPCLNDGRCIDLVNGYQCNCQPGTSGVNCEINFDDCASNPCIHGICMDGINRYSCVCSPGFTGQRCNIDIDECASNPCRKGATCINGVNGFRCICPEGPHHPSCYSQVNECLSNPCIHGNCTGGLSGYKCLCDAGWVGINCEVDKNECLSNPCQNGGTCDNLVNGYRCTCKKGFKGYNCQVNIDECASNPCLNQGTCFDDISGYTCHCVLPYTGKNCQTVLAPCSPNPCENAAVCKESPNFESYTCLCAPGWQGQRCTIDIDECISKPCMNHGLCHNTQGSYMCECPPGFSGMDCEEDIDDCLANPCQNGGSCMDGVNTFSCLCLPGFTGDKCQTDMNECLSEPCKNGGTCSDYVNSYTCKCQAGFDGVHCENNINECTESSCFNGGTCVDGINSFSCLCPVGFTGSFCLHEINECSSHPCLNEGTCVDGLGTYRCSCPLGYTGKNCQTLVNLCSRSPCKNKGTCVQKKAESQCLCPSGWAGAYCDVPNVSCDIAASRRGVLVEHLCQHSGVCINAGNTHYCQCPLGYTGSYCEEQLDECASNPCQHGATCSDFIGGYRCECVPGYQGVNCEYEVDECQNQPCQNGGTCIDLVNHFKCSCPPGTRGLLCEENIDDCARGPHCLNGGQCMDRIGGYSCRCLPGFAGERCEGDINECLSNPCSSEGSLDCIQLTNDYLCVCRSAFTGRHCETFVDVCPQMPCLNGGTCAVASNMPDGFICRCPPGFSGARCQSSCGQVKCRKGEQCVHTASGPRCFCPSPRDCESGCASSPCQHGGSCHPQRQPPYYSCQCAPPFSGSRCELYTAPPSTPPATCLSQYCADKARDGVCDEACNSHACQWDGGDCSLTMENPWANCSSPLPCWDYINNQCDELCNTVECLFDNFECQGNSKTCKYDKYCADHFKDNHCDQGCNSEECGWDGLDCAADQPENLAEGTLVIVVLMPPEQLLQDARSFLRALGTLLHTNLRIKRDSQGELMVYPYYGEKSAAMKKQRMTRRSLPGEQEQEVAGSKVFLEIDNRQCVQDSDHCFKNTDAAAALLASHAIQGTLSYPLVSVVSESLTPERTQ", "experiment": "FACS binding to K1-CHO cells expressing N-myc-Notch2", "type": "cell-based", "details": "doxycycline induced", "description": "as §1\nExpression plasmids were made in which either the Notch1 or Notch2 extracellular domain and trans-membrane domains were N-terminally myc-tagged and expressed under the control of a Tetracycline Response Element (TRE) upstream of a minimal CMV immediate early promoter. These plasmids were stably transfected into CHO-K1 cells (Clonetech), engineered to express a transactivator protein in the presence of Doxycycline that binds to and activates the TRE in the transfected plasmid. Cells were treated with […] doxycycline or vehicle for 48 hrs, and then stained with anti-NRR, anti-myc (9E10, Millipore) or E25 control antibodies and either goat anti-human Alexa 488 or Alexa 647 secondary antibodies (Invitrogen). After staining, cells were run on a FACScalibur machine (BD Biosciences) and 15000 events were collected and range gates were drawn to assess positively and negatively stained populations."}, "Notch2 signaling": {"tested_on": "Notch2 signaling", "experiment": "Co-culture Notch reporter assay, Notch2 signaling (U87MG cells + Jag1 cells)", "type": "cell-based", "description": "NIH-3T3 cells stably transfected with Jag1 were used to induce Notch signaling in NIH-3T3 cells stably transfected with Notch1 (except for “−Jag1”, which used untransfected NIH-3T3 cells in place of the Jag1-expressing cells). […] NIH-3T3 cells stably transfected with Jag1 were used to induce Notch signaling in U87MG cells, which express high levels of Notch2. The assay was performed as described in (A). […] The assay was performed as in (A) except that the receptor-expressing cells were generated by transient transfection of plasmids expressing the indicated Notch1 receptors.\nCo-culture assay in U87MG cells, as described in FIG. 10B.\nNIH-3T3 cells either stably transfected with Notch 1 or transiently transfected with plasmids containing other Notch receptors were co-transfected with a Notch-responsive TP-1 (12× CSL) Firefly luciferase reporter and a constitutively active Renilla Luciferase reporter (pRL-CMV, Promega) to control for transfection efficiency. Cells are allowed to recover from the transfection from 6 hours to overnight. Treatments of antibodies and NIH-3T3 cells stably transfected with ligand are used to stimulate the receptor cells. After 20 hours, firefly and Renilla luciferase are measured with Dual Glo Luciferase Assay system (Promega). Eight replicates were analyzed for each condition by dividing the Firefly signal by the Renilla signal to control for transfection efficiency. The mean and standard deviation were calculated and values were normalized to calculated values for co-culture stimulated with NIH-3T3 cells without ligand transfected."}, "[2]": {"tested_on": "splenic marginal zone B (MZB) cells", "experiment": "Marginal zone B cell analysis in Balb/c mice", "type": "in vivo, mouse", "details": "5 mg/kg, spleen, CD21/CD23 FACS, three animals", "description": "Balb/c mice were injected four times every four days with 5 mg/kg of α-gD isotype control, α-NRR1 or α-NRR2, and cells were harvested from the thymus or spleen on day 13, one day after the fourth dose. (A) Thymus weight measurements. Thymus weights (in mg) are expressed relative to total body weight (in g). Values represent the mean plus standard deviation for three mice per group. (B) Thymus cell count. (C) CD4 and CD8 FACS to identify CD4^+/CD8^+ double-positive T cells. Numbers represent the percentage of thymic cells in the double-negative, single-positive and double-positive populations. […] (D) CD21 and CD23 FACS to identify marginal zone B cells. Numbers represent the mean percentages ±standard deviation (from three animals) of cells within the MZB gate, which is boxed; p values are also noted; representative dot plots from one of the three animals in each group are graphed.\nSplenocytes were isolated from the mice and were stained for FACS with B220-PerCP, CD23-PE and CD21-FITC (BD Biosciences) as previously described (Saito, et al., Immunity, Vol. 18, 675-685, May 2003)."}, "SK23 melanoma cells": {"tested_on": "SK23 melanoma cells", "experiment": "Cell Titer Glo viability of melanoma cell line SK23", "type": "cell-based, human", "details": "six days, antibodies 20 mg/ml, DAPT 5 μM, ± Jagged-1", "description": "Human melanoma cell lines SK23 and LOX-IMVI were plated in medium containing 2% FBS at low density (4000 cells/well for SK23, 2500 cells/well for LOX-IMVI) in 96 well plates that were coated without (−jag-1) or with Jagged-1 ligand (+jag-1) (R&D Systems, Minneapolis, Minn.). […] An equal volume of DMSO served as the vehicle control, whereas an equal concentration of anti-gD HuB6 phage antibody served as the isotype control antibody. Cell Titer Glo assays (Promega, Madison, Wis.) were performed six days after plating. […] In FIGS. 25A and 25B, cell viability (y-axis) is expressed relative to the values from the DMSO vehicle, −jag-1 control wells."}, "DB DLBCL cell line": {"tested_on": "DB DLBCL cell line", "experiment": "Growth of DB diffuse large B-cell lymphoma cell line in vitro", "type": "cell-based", "description": "Diffuse large B-cell lymphoma (DLBCL) is the most common type of non-Hodgkin's lymphoma. […] (See Lee et al., Cancer Sci. 100:920-926, 2009.) However, how DLBCL cells would respond to Notch2 inhibition was not known. Therefore, we investigated the effect of anti-NRR2 on five DLBCL cell lines. The DLBCL lines listed on the right of FIG. 26 were grown in replicates for three days in wells of a 384-well plate. The cell cultures included the indicated concentrations of anti-NRR2 (referred to as “anti-Notch2” in FIGS. 26 and 27), which corresponded to three-fold serial dilutions starting at 10 μg/ml. Growth was assessed using Cell Titer Glo assays (Promega), plotted as the percentage of cell viability relative to treatment with an isotype control antibody. The data points in FIG. 26 represent average values obtained from individual wells for each cell line at the indicated antibody concentrations. […] The DB line was grown in wells of a 12-well plate, and the cultures were treated with DMSO, the gamma-secretase inhibitor DAPT, anti-gD isotype control antibody or anti-NRR2 at the indicated concentrations. Growth was assessed by counting viable cells (Vi-CELL, Beckman Coulter, Fullerton, Calif.) at days 2, 3 and 5 after inoculating and treating the cultures. Values represent the mean of measurements from three independent cultures, plus/minus the standard deviation."}}, "note": "Where “and” joins values, the source holds several entries; their conditions need not be identical. Identical values can stand only once."}
{"molecule": "B1", "values": [{"measurement": "binding to Notch2 NRR proteins", "setting": "Notch2 NRR", "value": "bound specifically"}, {"measurement": "binding to myc-Notch2 cells", "setting": "[1]", "value": "significantly bound"}, {"measurement": "effect on Notch2 reporter signaling", "setting": "Notch2 signaling; Jag1-induced, DAPT 5 μM", "value": "inhibition of Notch2 signaling"}, {"measurement": "inhibition of signaling induced through Jag1, Jag2, D111 and D114", "setting": "Notch2 signaling; all Notch ligands tested", "value": "inhibited signaling"}, {"measurement": "percentage of cells within the MZB gate (mean ± standard deviation)", "setting": "[2]", "value": "0.97% and 0.97+/−0.45%"}, {"measurement": "cell viability", "setting": "SK23 melanoma cells", "value": "decrease in viability"}, {"measurement": "growth over time (viable cell counts)", "setting": "DB DLBCL cell line; days 2, 3 and 5", "value": "suppresses the growth"}, {"measurement": "growth (cell viability relative to isotype control)", "setting": "DB DLBCL cell line; three days, three-fold dilutions from 10 μg/ml", "value": "strongly inhibited"}]}
